Measurements: PMC9188544, “Mechanism of glycogen synthase inactivation and interaction with glycogenin” (Nature Communications, 2022)

Columns and labels:
Assay in all cases: co-purification (HisTrap, TEV cleavage, Ni subtraction, Superdex200 gel filtration); GS WT or mutant co-expressed with GN(Y195F) in insect cells, both with N-terminal His6-TEV; lysate loaded on the HisTrap column
Conditions in all cases: partners not purified
[1] = target: T1, human glycogen synthase 1 (GS1) W18A (human, UniProt P13807 1-737, W18A, phosphorylation at S8, S641 and S641/S645 probed by immunoblot (Fig. 4b))
T1 construct: glycogen synthase 1 (muscle), human, encoded by GYS1, cDNA NM 002103; also called GS W18A; not shown: His6, N-terminal, cleaved
T1 sequence (looked up): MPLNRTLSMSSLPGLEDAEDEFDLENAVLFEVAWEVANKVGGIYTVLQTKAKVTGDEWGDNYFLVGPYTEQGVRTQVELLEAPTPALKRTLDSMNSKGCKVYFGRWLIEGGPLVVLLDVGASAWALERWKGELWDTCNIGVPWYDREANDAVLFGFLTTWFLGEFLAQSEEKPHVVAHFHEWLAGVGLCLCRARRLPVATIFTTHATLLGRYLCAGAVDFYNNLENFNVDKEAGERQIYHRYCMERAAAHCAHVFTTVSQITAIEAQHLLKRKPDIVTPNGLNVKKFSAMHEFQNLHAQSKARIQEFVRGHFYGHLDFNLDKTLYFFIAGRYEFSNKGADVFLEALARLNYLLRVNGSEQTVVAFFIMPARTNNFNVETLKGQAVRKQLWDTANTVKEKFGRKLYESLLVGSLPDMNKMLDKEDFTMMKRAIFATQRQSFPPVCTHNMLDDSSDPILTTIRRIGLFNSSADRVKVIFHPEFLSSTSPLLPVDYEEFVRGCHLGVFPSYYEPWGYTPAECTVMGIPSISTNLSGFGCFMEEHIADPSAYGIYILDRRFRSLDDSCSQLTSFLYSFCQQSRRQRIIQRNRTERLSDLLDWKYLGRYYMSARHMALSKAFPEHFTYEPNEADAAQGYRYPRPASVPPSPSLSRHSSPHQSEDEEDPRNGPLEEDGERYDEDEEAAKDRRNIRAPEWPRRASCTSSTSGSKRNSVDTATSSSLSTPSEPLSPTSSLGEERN

[2] = target: T2, human glycogen synthase 1 (GS1), wild type, pFastBac construct with N-terminal His6-TEV, co-expressed with … (human, UniProt P13807 1-737, phosphorylation at S8, S641 and S641/S645 probed by immunoblot (Fig. 4b))
T2 construct: glycogen synthase 1 (muscle), human, encoded by GYS1, cDNA NM 002103; also called GS WT; WT GS; not shown: His6, N-terminal, cleaved
T2 sequence (looked up): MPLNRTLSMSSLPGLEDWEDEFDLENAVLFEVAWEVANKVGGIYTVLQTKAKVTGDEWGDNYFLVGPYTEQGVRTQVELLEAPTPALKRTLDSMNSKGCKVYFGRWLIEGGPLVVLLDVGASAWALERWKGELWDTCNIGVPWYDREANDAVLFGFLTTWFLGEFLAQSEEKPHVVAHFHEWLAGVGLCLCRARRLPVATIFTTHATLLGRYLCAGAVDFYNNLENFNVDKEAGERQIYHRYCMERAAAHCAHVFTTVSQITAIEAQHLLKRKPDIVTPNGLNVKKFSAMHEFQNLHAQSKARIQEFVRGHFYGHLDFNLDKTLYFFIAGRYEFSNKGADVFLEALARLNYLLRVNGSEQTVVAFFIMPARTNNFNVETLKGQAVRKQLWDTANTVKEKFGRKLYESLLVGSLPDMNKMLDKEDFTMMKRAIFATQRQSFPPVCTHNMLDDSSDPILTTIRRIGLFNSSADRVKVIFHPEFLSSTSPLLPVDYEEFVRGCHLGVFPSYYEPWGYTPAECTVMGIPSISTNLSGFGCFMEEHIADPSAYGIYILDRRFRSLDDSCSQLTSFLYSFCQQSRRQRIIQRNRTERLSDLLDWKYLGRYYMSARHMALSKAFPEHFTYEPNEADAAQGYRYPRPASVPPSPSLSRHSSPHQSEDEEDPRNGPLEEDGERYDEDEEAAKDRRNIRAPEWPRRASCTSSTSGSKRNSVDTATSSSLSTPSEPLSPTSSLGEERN

[3] = target: T3, human glycogen synthase 1 (GS1) R603A (human, UniProt P13807 1-737, R603A, phosphorylation at S8, S641 and S641/S645 probed by immunoblot (Fig. 4b))
T3 construct: glycogen synthase 1 (muscle), human, encoded by GYS1, cDNA NM 002103; also called GS R603A; not shown: His6, N-terminal, cleaved
T3 sequence (looked up): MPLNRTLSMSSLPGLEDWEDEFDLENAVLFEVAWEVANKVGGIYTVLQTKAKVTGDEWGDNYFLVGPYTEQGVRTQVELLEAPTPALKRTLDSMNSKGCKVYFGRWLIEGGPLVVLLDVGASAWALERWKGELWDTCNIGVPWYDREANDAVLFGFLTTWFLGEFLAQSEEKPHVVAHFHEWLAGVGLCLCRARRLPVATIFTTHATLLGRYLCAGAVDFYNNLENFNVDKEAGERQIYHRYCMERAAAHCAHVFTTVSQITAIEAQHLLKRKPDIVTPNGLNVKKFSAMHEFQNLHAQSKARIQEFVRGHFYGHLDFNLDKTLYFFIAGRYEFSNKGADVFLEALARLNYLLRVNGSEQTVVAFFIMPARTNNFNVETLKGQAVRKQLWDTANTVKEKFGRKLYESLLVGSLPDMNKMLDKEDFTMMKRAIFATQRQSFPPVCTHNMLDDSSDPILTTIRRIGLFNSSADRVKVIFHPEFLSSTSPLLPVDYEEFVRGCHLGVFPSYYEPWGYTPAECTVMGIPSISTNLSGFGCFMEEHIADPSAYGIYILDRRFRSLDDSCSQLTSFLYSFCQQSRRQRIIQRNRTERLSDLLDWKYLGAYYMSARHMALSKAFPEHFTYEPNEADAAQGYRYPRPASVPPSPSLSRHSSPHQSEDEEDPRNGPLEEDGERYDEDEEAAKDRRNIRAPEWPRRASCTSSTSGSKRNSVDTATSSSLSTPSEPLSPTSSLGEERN

binding result [1]: binds
binding result [2]: binds
binding result [3]: binds
B1: human glycogenin 1 (GN1) Y195F, full length, non-glucosylated (enzyme, UniProt P46976-2 1-333, looked up)
chain: MTDQAFVTLTTNDAYAKGALVLGSSLKQHRTTRRLVVLATPQVSDSMRKVLETVFDEVIMVDVLDSGDSAHLTLMKRPELGVTLTKLHCWSLTQYSKCVFMDADTLVLANIDDLFDREELSAAPDPGWPDCFNSGVFVYQPSVETYNQLLHLASEQGSFDGGDQGILNTFFSSWATTDIRKHLPFIYNLSSISIFSYLPAFKVFGASAKVVHFLGRVKPWNYTYDPKTKSVKSEAHDPNMTHPEFLILWWNIFTTNVLPLLQQFGLVKDTCSYVNVEDVSGAISHLSLGEIPAMAQPFVSSEERKERWEQGQADYMGADSFDNIKRKLDTYLQ
notes: glycogenin 1, human, encoded by GYG1, cDNA NM 001184720, full length; expected ~37.5 kDa; the C-terminal GN34 region is modelled as residues 300-332, which fits the 333-residue isoform; Cloned in pFL (with untagged GS) and in pFastBac (co-infected with His6-TEV-GS WT or mutants); Both carry an N-terminal His6 tag and a cleavable site, so they are treated as one molecule; also called GN(Y195F); GN …
